These results are taken from patent US6927041B2, “Human neuropeptide Y-like G protein-coupled receptor” (Bayer Corporation, priority 2000, dated 2005).

Where no end group is shown, it is not given here.

The target of this test is T1, human NPY-like GPCR (Homo sapiens, UniProt Q96P65).
T1 construct: expressed in transfected cells; host or cells: HEK293 (human embryonic kidney 293) cells, membrane preparation
T1 sequence (Q96P65 1-431): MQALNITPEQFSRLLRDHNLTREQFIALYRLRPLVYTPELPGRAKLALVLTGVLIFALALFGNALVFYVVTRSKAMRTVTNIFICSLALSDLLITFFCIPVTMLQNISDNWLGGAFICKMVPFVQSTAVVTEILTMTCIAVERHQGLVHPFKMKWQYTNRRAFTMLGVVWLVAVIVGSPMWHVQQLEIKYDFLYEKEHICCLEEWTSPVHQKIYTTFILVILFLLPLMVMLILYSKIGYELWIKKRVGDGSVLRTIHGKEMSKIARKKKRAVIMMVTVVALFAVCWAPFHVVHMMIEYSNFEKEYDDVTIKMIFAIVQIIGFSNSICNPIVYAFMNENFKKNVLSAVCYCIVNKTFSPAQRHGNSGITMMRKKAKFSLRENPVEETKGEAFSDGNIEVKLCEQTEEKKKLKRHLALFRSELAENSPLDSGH
Put plainly: Binding affinity of known peptides for the human NPY-like GPCR. The settings on record: human neuropeptide Y-like G protein-coupled receptor (SEQ ID NO:2); qualitative statement. The method, then:
Human embryonic kidney 293 cells transfected with a polynucleotide that expresses human NPY-like GPCR are scraped from a culture flask into 5 ml of Tris HCl, 5 mM EDTA, pH 7.5, and lysed by sonication. Cell lysates are centrifuged at 1000 rpm for 5 minutes at 4° C. The supernatant is centrifuged at 30,000×g for 20 minutes at 4° C. The pellet is suspended in binding buffer containing 50 mM Tris HCl, 5 mM MgSO4, 1 mM EDTA, 100 mM NaCl, pH 7.5, supplemented with 0.1% BSA, 2 μg/ml aprotinin, […], and 10 μg/ml phosphoramidon. Optimal membrane suspension dilutions, defined as the protein concentration required to bind less than 10% of the added radioligand, are added to 96-well polypropylene microtiter plates containing ^125I-labeled ligand or test compound, non-labeled peptides, and binding buffer to a final volume of 250 μl.
In equilibrium saturation binding assays, membrane preparations are incubated in the presence of increasing concentrations (0.1 nM to 4 nM) of ^125I-labeled ligand or test compound (specific activity 2200 Ci/mmol). The binding affinities of different test compounds are determined in equilibrium competition binding assays, using 0.1 nM ^125I-peptide in the presence of twelve different concentrations of each test compound.
Binding reaction mixtures are incubated for one hour at 30° C. […] Radioactivity is measured by scintillation counting, and data are analyzed by a computerized non-linear regression program.
Non-specific binding is defined as the amount of radioactivity remaining after incubation of membrane protein in the presence of 100 nM of unlabeled peptide. Protein concentration is measured by the Bradford method using Bio-Rad Reagent, with bovine serum albumin as a standard. A test compound which […] the radioactivity of membrane protein by at least 15% relative to radioactivity of membrane protein that was not incubated with a test compound is identified as a compound which binds to a human NPY-like GPCR polypeptide.
Neuropeptide Y: the “binding affinity for the receptor” value is given as “do not appear to have binding affinity”.

For “peptide YY: peptide that stimulates the Y1 receptor”, the “binding affinity for the receptor” value is on record as “do not appear to have binding affinity”.

“orexin-A (QPLPDCCRQKTCSCRLYELLHGAGNHAAGILTL; ends and bridges not checked; cysteine pairing not given here; UniProt O43612 34-66, looked up)”: the “binding affinity for the receptor” value was “do not appear to have binding affinity”.
